Test [1] addresses DMF5 T cell receptor. Description: flow cytometry, barcoded tetramer library on Jurkat/MA cells transduced with DMF5.
In test [2] the target is DMF5 T cell receptor. Description: flow cytometry, tetramer titration on Jurkat T-cells transduced with DMF5.

“MART-1/HLA-A*02:01 tetramer (from UniProt P61769 21-119) (peptide-MHC)”: the percent of cells stained with DMF5 T cell receptor [1] amounted to 33%. Besides, the fold improvement in EC50 relative to photo-exchanged tetramers in the test with DMF5 T cell receptor [2] turned out to be 2.6 fold.

These data come from patent publication US20240294601A1.
